Sequences and labels used below:
B1: HESX1 (parent)
chain: QKKDCVPLMKPHRPWADTCSSSGK
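Further: lentivirally expressed fusions sorted by FACS into six bins by GFP to DsRed ratio, PSI derived from sequencing read proportions per bin multiplied by bin number.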

The variants in the data set derive from B1. Briefly: protein stability index of a GFP-peptide fusion (GPS, HEK-293T) (PSI 1-6); higher = more stable. The conditions noted are these: c terminus: a fixed tail appended.
QKKDCVPLMKPSRPWADTCSSSGK [H12S]: the protein stability index is 4.05.

As to QKKDCVPLMKPKRPWADTCSSSGK [H12K], the protein stability index worked out at 3.73. As to QKKDCVPLMKPCRPWADTCSSSGK [H12C], the protein stability index is 3.42. For the variant QKKDCVPLMKPIRPWADTCSSSGK [H12I], the protein stability index turned out to be 3.07. Turning to QKKDCVPLMKPRRPWADTCSSSGK [H12R], the protein stability index came to 4.82.

QKKDCVPLMKPARPWADTCSSSGK [H12A]: the protein stability index worked out at 4. Consider QKKDCVPLMKPWRPWADTCSSSGK [H12W], for which the protein stability index was found to be 2.29. Turning to QKKDCVPLMKPGRPWADTCSSSGK [H12G], the protein stability index is 3.98.

Consider QKKDCVPLMKPTRPWADTCSSSGK [H12T], for which the protein stability index was determined as 3.08. With QKKDCVPLMKPLRPWADTCSSSGK [H12L] the figure was 3.91; with QKKDCVPLMKPPRPWADTCSSSGK [H12P], 4.01; with QKKDCVPLMKPDRPWADTCSSSGK [H12D], 4.49. With QKKDCVPLMKPQRPWADTCSSSGK [H12Q] the figure was 3.94; with QKKDCVPLMKPYRPWADTCSSSGK [H12Y], 3.29; with QKKDCVPLMKPMRPWADTCSSSGK [H12M], 3.18. As for QKKDCVPLMKPFRPWADTCSSSGK [H12F], the protein stability index was found to be 3.25. Take QKKDCVPLMKPERPWADTCSSSGK [H12E]: the protein stability index stood at 4.44. As for QKKDCVPLMKPNRPWADTCSSSGK [H12N], the protein stability index came out at 3.77.

Turning to QKKDCVMLMKPHRPWADTCSSSGK [P7M], the protein stability index is 3.17. For QKKDCVDLMKPHRPWADTCSSSGK [P7D], the protein stability index came to 3.93.

Turning to QKKDCVQLMKPHRPWADTCSSSGK [P7Q], the protein stability index came out at 3.34.

In the case of QKKDCVHLMKPHRPWADTCSSSGK [P7H], the protein stability index came to 2.92. Take QKKDCVRLMKPHRPWADTCSSSGK [P7R]: the protein stability index was 2.46. Then QKKDCVCLMKPHRPWADTCSSSGK [P7C], with 2.74; and QKKDCVYLMKPHRPWADTCSSSGK [P7Y], with 2.78; and QKKDCVFLMKPHRPWADTCSSSGK [P7F], with 2.07. With QKKDCVWLMKPHRPWADTCSSSGK [P7W], the protein stability index was 1.76. On to QKKDCVVLMKPHRPWADTCSSSGK [P7V], for which the protein stability index was found to be 2.56. Turning to QKKDCVALMKPHRPWADTCSSSGK [P7A], the protein stability index stood at 2.79. Regarding QKKDCVSLMKPHRPWADTCSSSGK [P7S], the protein stability index is 3.38. Then QKKDCVILMKPHRPWADTCSSSGK [P7I], with 2.44; and QKKDCVNLMKPHRPWADTCSSSGK [P7N], with 3.07; and QKKDCVKLMKPHRPWADTCSSSGK [P7K], with 2.8. Take QKKDCVLLMKPHRPWADTCSSSGK [P7L]: the protein stability index is 2.68. QKKDCVTLMKPHRPWADTCSSSGK [P7T]: the protein stability index turned out to be 2.7.

As to QKKDCVPLMVPHRPWADTCSSSGK [K10V], the protein stability index amounted to 3.94. Regarding QKKDCVPLMTPHRPWADTCSSSGK [K10T], the protein stability index turned out to be 3.35. Turning to QKKDCVPLMNPHRPWADTCSSSGK [K10N], the protein stability index was 4.25. Consider QKKDCVPLMHPHRPWADTCSSSGK [K10H], for which the protein stability index is 3.79. QKKDCVPLMAPHRPWADTCSSSGK [K10A]: the protein stability index stood at 3.18. Then QKKDCVPLMWPHRPWADTCSSSGK [K10W], with 2.52.

Take QKKDCVPLMCPHRPWADTCSSSGK [K10C]: the protein stability index is 3.88. With QKKDCVPLMLPHRPWADTCSSSGK [K10L], the protein stability index is 3.58. With QKKDCVPLMQPHRPWADTCSSSGK [K10Q], the protein stability index was found to be 4.19. On to QKKDCVPLMSPHRPWADTCSSSGK [K10S], for which the protein stability index was 3.74.

Consider QKKDCVPLMGPHRPWADTCSSSGK [K10G], for which the protein stability index was found to be 3.47. For QKKDCVPLMDPHRPWADTCSSSGK [K10D], the protein stability index was 4.83. As to QKKDCVPLMYPHRPWADTCSSSGK [K10Y], the protein stability index worked out at 3.45. For the variant QKKDCVPLMIPHRPWADTCSSSGK [K10I], the protein stability index was found to be 3.7. Regarding QKKDCVPLMRPHRPWADTCSSSGK [K10R], the protein stability index came out at 3.48. Regarding QKKDCVPLMMPHRPWADTCSSSGK [K10M], the protein stability index worked out at 2.92. As for QKKDCVPLMFPHRPWADTCSSSGK [K10F], the protein stability index amounted to 3.21. Then QKKDCVPLMKPHRPWCDTCSSSGK [A16C], with 3.72.

For QKKDCVPLMKPHRPWDDTCSSSGK [A16D], the protein stability index worked out at 4.66. On to QKKDCVPLMKPHRPWEDTCSSSGK [A16E], for which the protein stability index came out at 3.9. Then QKKDTVPLMKPHRPWADTCSSSGK [C5T], with 3.2; and QKKDYVPLMKPHRPWADTCSSSGK [C5Y], with 3.38. In the case of QKKDMVPLMKPHRPWADTCSSSGK [C5M], the protein stability index stood at 3.19. Take QKKDRVPLMKPHRPWADTCSSSGK [C5R]: the protein stability index turned out to be 4.16. As for QKKDPVPLMKPHRPWADTCSSSGK [C5P], the protein stability index was 3.17. QKKDVVPLMKPHRPWADTCSSSGK [C5V]: the protein stability index is 3.78. Then QKKDQVPLMKPHRPWADTCSSSGK [C5Q], with 2.49; and QKKDNVPLMKPHRPWADTCSSSGK [C5N], with 3.06. Consider QKKDSVPLMKPHRPWADTCSSSGK [C5S], for which the protein stability index amounted to 3.4. Then QKKDWVPLMKPHRPWADTCSSSGK [C5W], with 3.34; and QKKDCIPLMKPHRPWADTCSSSGK [V6I], with 3.03. Turning to QKKDCAPLMKPHRPWADTCSSSGK [V6A], the protein stability index turned out to be 4.1. For the variant QKKDCTPLMKPHRPWADTCSSSGK [V6T], the protein stability index was determined as 3.92. For QKKDCLPLMKPHRPWADTCSSSGK [V6L], the protein stability index is 2.92. Regarding QKKDCRPLMKPHRPWADTCSSSGK [V6R], the protein stability index worked out at 2.88. On to QKKDCQPLMKPHRPWADTCSSSGK [V6Q], for which the protein stability index turned out to be 2.98.

For the variant QKKDCCPLMKPHRPWADTCSSSGK [V6C], the protein stability index amounted to 3.1. On to QKKDCWPLMKPHRPWADTCSSSGK [V6W], for which the protein stability index was found to be 3.08. Regarding QKKDCFPLMKPHRPWADTCSSSGK [V6F], the protein stability index came to 3.28. Take QKKDCYPLMKPHRPWADTCSSSGK [V6Y]: the protein stability index is 3.01.

Consider QKKDCMPLMKPHRPWADTCSSSGK [V6M], for which the protein stability index came to 3.05. Turning to QKKDCEPLMKPHRPWADTCSSSGK [V6E], the protein stability index worked out at 4.38. Then QKKDCDPLMKPHRPWADTCSSSGK [V6D], with 3.11; and QKKDCNPLMKPHRPWADTCSSSGK [V6N], with 3.98; and QKKDCPPLMKPHRPWADTCSSSGK [V6P], with 3.31. With QKKDCKPLMKPHRPWADTCSSSGK [V6K] the figure was 2.57. Take QKKDCGPLMKPHRPWADTCSSSGK [V6G]: the protein stability index was 3.46. Then QKKDCSPLMKPHRPWADTCSSSGK [V6S], with 3.4; and QKKDCHPLMKPHRPWADTCSSSGK [V6H], with 3.17; and QKKDCVPLMKEHRPWADTCSSSGK [P11E], with 3.1. As for QKKDCVPLMKWHRPWADTCSSSGK [P11W], the protein stability index came out at 3.16. With QKKDCVPLMKDHRPWADTCSSSGK [P11D], the protein stability index came to 3.96. Regarding QKKDCVPLMKKHRPWADTCSSSGK [P11K], the protein stability index stood at 3.42. As for QKKDCVPLMKGHRPWADTCSSSGK [P11G], the protein stability index came to 3.87.

Take QKKDCVPLMKNHRPWADTCSSSGK [P11N]: the protein stability index was 3.48. Turning to QKKDCVPLMKAHRPWADTCSSSGK [P11A], the protein stability index was found to be 3.29. As for QKKDCVPLMKFHRPWADTCSSSGK [P11F], the protein stability index is 3.03. Then QKKDCVPLMKRHRPWADTCSSSGK [P11R], with 3.46; and QKKDCVPLMKMHRPWADTCSSSGK [P11M], with 3.83.

For the origin of these results see the supplement of paper PMC10567573.
